Assay results taken from patent CN117321082A (APOCOR LTD, dated 2023).

Tests used:
[1] = molecular target: T1, 全长人KLRG1 (full-length human KLRG1 on stably transfected CHOK1 cells) (human, UniProt Q96E93 1-195); assay: FACS competition on CHOK1-hKLRG1 cells; competitor 0.3 uM human E-cadherin-ECD-FC-biotin, detected with streptavidin-Alexa 488
T1 construct: whole, on cells; the cell assays used full-length protein; also called hKLRG1; CHOK1-hKLRG1
T1 sequence (looked up): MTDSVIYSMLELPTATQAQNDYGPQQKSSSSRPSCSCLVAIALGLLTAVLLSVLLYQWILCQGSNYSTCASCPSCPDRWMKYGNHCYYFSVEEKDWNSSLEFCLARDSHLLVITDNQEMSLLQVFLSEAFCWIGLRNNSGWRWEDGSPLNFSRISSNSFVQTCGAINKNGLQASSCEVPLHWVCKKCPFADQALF

[2] = molecular target: T1, 全长人KLRG1 (full-length human KLRG1 on …); assay: FACS on CHOK1 cells expressing full-length human KLRG1, detected with anti-human IgG-Alexa 488
[3] = molecular target: T1, 全长人KLRG1 (full-length human KLRG1 on …); assay: FACS competition on CHOK1-hKLRG1 cells; competitor 0.3 uM human E-cadherin-ECD-FC-biotin (Example 7)

IC50 [1]: 8.05 nM | EC50 [2]: 1.33 nM | IC50 [3]: 5.3 nM
B1: PA015 (antibody, human IgG1, kappa, V domains shown)
VH: QVTLRESGPALVKPTQTLTLTCTVSGFSLSTFGMGVGWIRQPPGKALEWLAHIWWDDDKWYELALKSRLTISKDTSKNQVVLTITNMDPVDTATYYCARVIYYGSRSAYYSMDYWGQGTTVTVSS
VL: DVVMTQTPLSLSVTPGQPASISCKSSQSIVHSNAHTYLEWYLQKPGQSPQLLIYKVSNRFSGVPDRFSGSGSGTDFTLKISRVEAEDVGVYYCFQGSHVPVTFGQGTKLEIKR
notes: also called PA015抗体; 抗KLRG1抗体
